Target: 7c12 monobody displayed on phage
Assay: ELISA

GST-Abl SH2 I164E (domain or fragment)
fold reduction of binding against WT: 400 fold
